The test deals with NbNRC2-6xHis-3xFLAG, affinity-purified from N. benthamiana leaves (Nicotiana benthamiana). Kind of test: SEC; purified NbNRC2-6xHis-3xFLAG on Superdex 200 Increase 10/300 GL, 25 mM Tris-HCl pH 8, 500 mM NaCl, 5% glycerol, 1 mM EDTA, 4°C; size estimated from a protein standard curve.

Data on one substance can be found in publication PMC11524475.

The term stoichiometry N denotes a count of units in the complex or per binding partner.

In the case of “NbNRC2-6xHis-3xFLAG, affinity-purified from N. benthamiana leaves (natural protein)”, the stoichiometry N is 2.
